Data from publication PMC7961048 (2021).
Non-standard residues stand in square brackets, D forms with d. No end group written: not given here. *: point of attachment. Biotin = O=C1N[C@H]2[C@H](CS[C@H]2CCCCC(=O)*)N1; pT = C[C@@H](OP(=O)(O)O)[C@H](N)C(=O)O; ttds = NCCCOCCOCCOCCCNC(=O)CCC(=O)*

What was measured:
[1] = target: T1, full-length human 14-3-3η fused to the C terminus of MBP (human, UniProt Q04917 1-246); assay: FP
T1 chain: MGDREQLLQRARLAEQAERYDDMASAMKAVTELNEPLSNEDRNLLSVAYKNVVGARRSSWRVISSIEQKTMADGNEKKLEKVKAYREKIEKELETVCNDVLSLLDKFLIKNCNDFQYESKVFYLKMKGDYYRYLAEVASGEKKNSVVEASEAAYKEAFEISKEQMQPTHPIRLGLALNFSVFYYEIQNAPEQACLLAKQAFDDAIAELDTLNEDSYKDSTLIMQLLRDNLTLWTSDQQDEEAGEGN

[2] = target: T2, full-length human 14-3-3τ fused to the C terminus of MBP (human, UniProt P27348 1-245); assay: FP
T2 chain: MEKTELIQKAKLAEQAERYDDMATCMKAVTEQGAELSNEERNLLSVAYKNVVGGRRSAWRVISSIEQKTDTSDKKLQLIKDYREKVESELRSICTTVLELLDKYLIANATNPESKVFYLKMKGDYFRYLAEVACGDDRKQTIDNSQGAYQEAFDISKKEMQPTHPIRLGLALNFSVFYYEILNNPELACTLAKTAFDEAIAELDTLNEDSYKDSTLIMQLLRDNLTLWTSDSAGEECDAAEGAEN

[3] = target: T3, full-length human 14-3-3ε fused to the C terminus of MBP (human, UniProt P62258 1-255); assay: FP
T3 chain: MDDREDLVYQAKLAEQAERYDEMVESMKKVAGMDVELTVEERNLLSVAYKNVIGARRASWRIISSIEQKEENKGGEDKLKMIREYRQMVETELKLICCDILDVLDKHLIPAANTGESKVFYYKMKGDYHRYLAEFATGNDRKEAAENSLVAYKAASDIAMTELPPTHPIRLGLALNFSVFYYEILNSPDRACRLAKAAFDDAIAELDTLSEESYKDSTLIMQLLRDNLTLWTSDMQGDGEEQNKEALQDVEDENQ

[4] = target: T4, full-length human 14-3-3σ fused to the C terminus of MBP (human, UniProt P31947 1-248); assay: FP
T4 chain: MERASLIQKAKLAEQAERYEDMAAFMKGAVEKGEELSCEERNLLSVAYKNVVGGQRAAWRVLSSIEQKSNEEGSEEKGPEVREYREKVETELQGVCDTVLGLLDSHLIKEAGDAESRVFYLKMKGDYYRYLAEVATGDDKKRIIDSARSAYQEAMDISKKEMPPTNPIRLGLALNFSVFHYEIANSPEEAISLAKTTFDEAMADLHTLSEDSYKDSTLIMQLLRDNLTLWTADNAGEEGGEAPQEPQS

[5] = target: T5, full-length human 14-3-3β fused to the C terminus of MBP (human, UniProt P31946 1-246); assay: FP
T5 chain: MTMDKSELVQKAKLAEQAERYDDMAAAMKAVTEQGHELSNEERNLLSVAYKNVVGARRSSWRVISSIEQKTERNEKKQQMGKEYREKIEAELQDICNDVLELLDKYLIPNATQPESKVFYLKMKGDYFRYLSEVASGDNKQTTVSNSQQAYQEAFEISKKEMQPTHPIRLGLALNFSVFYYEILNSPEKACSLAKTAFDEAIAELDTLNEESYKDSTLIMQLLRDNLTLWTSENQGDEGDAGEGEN

[6] = target: T6, full-length human 14-3-3ζ fused to the C terminus of MBP (human, UniProt P63104 1-245); assay: FP
T6 chain: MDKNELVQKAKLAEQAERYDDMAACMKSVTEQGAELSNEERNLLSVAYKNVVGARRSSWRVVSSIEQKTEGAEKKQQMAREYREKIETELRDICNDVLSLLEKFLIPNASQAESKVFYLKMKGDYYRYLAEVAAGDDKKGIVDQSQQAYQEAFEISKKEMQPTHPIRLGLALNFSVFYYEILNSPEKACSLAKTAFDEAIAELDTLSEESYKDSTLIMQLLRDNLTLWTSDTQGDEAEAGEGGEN

[7] = target: T7, full-length human 14-3-3γ fused to the C terminus of MBP (human, UniProt P61981 1-247); assay: FP
T7 chain: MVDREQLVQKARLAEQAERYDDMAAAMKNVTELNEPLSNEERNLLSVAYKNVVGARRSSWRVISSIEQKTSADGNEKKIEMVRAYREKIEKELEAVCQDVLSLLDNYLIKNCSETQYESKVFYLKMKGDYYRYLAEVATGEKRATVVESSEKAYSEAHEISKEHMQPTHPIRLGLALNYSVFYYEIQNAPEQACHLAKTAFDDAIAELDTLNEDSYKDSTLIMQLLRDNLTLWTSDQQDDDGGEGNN

[8] = target: T8, unfused 14-3-3ε devoid of the flexible C-terminal tail (human); assay: FP
T8 chain: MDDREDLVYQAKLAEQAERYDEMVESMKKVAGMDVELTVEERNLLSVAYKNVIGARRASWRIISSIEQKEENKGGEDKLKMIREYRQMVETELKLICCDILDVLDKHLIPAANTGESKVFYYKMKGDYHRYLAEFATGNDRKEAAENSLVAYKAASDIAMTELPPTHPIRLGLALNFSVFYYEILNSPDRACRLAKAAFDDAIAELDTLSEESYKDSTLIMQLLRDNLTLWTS

[9] = target: T9, unfused 14-3-3τ devoid of the flexible C-terminal tail (human); assay: FP
T9 chain: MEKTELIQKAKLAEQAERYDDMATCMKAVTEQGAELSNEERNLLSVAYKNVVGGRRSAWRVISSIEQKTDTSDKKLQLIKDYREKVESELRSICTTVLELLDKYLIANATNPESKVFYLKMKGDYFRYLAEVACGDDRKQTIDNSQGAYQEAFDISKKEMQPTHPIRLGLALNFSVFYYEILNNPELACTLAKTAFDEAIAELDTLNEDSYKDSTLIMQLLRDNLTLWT

[10] = target: T7, full-length human 14-3-3γ fused to the …; assay: FP; with FSC

Binder	Kd [1] [µM]	Kd [2] [µM]	Kd [3] [µM]	Kd [4] [µM]	Kd [5] [µM]	Kd [6] [µM]	Kd [7] [µM]	Kd [8] [µM]	Kd [9] [µM]	Kd [10] [µM]
{Biotin-ttds}-SSRTRRE[pT]QL [HPV16 E6 phospho-PBM peptide p16E6]	80.5	144	> 300	> 300	159	73.6	37.2	186	135	91.7
{Biotin-ttds}-RLQRRRE[pT]QV [HPV18 E6 phospho-PBM peptide p18E6]	23.6	37.8	101	139	42.2	22.4	11.1	66.2	42.3	19.3
